Measured values as given in patent publication US20040022780A1, “Serine protease and topical retinoid compositions useful for treatment of acne vulgarise and production of anti-aging effects” (priority 1997, published 2004).

Experiments:
Type in all cases: in vivo, Rhino mouse
involucrin = test: RT-PCR gene expression in skin, involucrin; settings: trypsin (0.0001-0.01% (w/v)) daily for five days, dose dependent
Procedure: (§1) Rhino mice of Example 1 were treated daily with trypsin compositions (0% (w/v), 0.0001% (w/v), 0.001% (w/v), and 0.01% (w/v)), as prepared in Example 2, for five days and sacrificed at day eight. The skins of vehicle treated mice and trypsin-treated mice were obtained as described in Example 3, then their total RNAs were extracted using “RNA Stat-60” reagent available from Tel-Test “B,” Inc. as described in Chomczymski, “Single Step Method of RNA Isolation By Acid Guanidinium Thiocyanate-phenol-chloroform extraction,” 162 Anal. Biochem. 156-59 (1987) which is incorporated herein by reference in its entirety. A sufficient amount of RNase-free DNase available from Promega, Corp. under the tradename “RQ1 RNase-free DNase” was then added to the extracted RNA from each mouse such that each respective product contained 200 ng of DNased-RNA using the procedure set forth in “RNase-free DNase” protocol published by Promega, Corp. (May, 1995). […]
(§2) The PCR products were then analyzed on 2% agarose/ethidium bromide gels according to methods well-known in the art in order to compare the level of expression of certain genes in skins of trypsin-treated and untreated mice. […]

Transglutaminase mRNA = test: RT-PCR gene expression in skin, transglutaminase; settings: increasing concentrations of trypsin (0.0001-0.01% (w/v)) daily for five days
Procedure: as §1, §2

Elastin mRNA = test: RT-PCR gene expression in skin, elastin; settings: increasing concentrations of trypsin (0.0001-0.01% (w/v)) daily for five days
Procedure: as §1, §2

Transglutaminase mRNA level (Transglutaminase mRNA): reduced to below detection level
B1: trypsin (protein, UniProt P00760 24-246, looked up)
Serine protease 1: IVGGYTCGANTVPYQVSLNSGYHFCGGSLINSQWVVSAAHCYKSGIQVRLGEDNINVVEGNEQFISASKSIVHPSYNSNTLNNDIMLIKLKSAASLNSRVASISLPTSCASAGTQCLISGWGNTKSSGTSYPDVLKCLKAPILSDSSCKSAYPGQITSNMFCAGYLEGGKDSCQGDSGGPVVCSGKLQGIVSWGSGCAQKNKPGVYTKVCNYVSWIKQTIASN
notes: lyophilyzed trypsin from Sigma-Aldrich, a serine protease, in Hepes buffer mixed with GDL liposomes
level of involucrin (involucrin): increased
Elastin mRNA (Elastin mRNA): increased
